PMC4886647, “Transcriptional Regulation of the Outer Membrane Porin Gene ompW Reveals its Physiological Role during the Transition from the Aerobic to the Anaerobic Lifestyle of Escherichia coli”

B1: PompW -167 to -36 native (dsDNA)
DNA 1: GAGTTAATATTTGCGTAGCGAAAATATTTAAAAATTGATTTAAATCACATTAACCAGGATTCTCAATGCAACTTCTAAATTAATCCAGATCAATAAAGGGTGAATTATCATATGTAATGTGATCTATGTAGG
DNA 2: CCTACATAGATCACATTACATATGATAATTCACCCTTTATTGATCTGGATTAATTTAGAAGTTGCATTGAGAATCCTGGTTAATGTGATTTAAATCAATTTTTAAATATTTTCGCTACGCAAATATTAACTC
B2: PompW m-42.5 (dsDNA)
DNA 1: CATTAACCAGGATTCTCAATGCAACTTCTAAATTAATCCAGATCAATAAAGGGTGAATTATCATATGTAATCTATGTAGGATCATTTGTTACTCCAATGTAGGTATATTCGTC
DNA 2: GACGAATATACCTACATTGGAGTAACAAATGATCCTACATAGATTACATATGATAATTCACCCTTTATTGATCTGGATTAATTTAGAAGTTGCATTGAGAATCCTGGTTAATG
B3: PompW -120 to -3 native (dsDNA)
DNA 1: CATTAACCAGGATTCTCAATGCAACTTCTAAATTAATCCAGATCAATAAAGGGTGAATTATCATATGTAATGTGATCTATGTAGGATCATTTGTTACTCCAATGTAGGTATATTCGTC
DNA 2: GACGAATATACCTACATTGGAGTAACAAATGATCCTACATAGATCACATTACATATGATAATTCACCCTTTATTGATCTGGATTAATTTAGAAGTTGCATTGAGAATCCTGGTTAATG

Columns and labels:
His6-FNR D154A = His6-FNR D154A (Escherichia coli, UniProt P0A9E5 1-250, D154A); test: EMSA; two retarded bands; EMSA: 20 mM Tris-HCl pH 8.0, 50 mM NaCl, 1 mM EDTA, 1 mM beta-mercaptoethanol, 10% glycerol, 37 C 30 min; 6% polyacrylamide gel in ice bath; 0.2 mM cAMP for CRP; settings: protein: recombinant; tags: His6 (pET28a); chain copies: 2; blunt
His6-CRP = His6-CRP (Escherichia coli, UniProt P0ACJ8 1-210); test: EMSA; 0.2 mM cAMP; EMSA: 20 mM Tris-HCl pH 8.0, 50 mM NaCl, 1 mM EDTA, 1 mM beta-mercaptoethanol, 10% glycerol, 37 C 30 min; 6% polyacrylamide gel in ice bath; 0.2 mM cAMP for CRP; settings: protein: recombinant; tags: His6 (pET28a); chain copies: 2; blunt

| Binder | binding result (His6-FNR D154A) | binding result (His6-CRP) |
| --- | --- | --- |
| B1 | binds |  |
| B2 |  | no binding |
| B3 |  | binds |
